Patent US11994512B2, “Single-cell genomic methods to generate ex vivo cell systems that recapitulate in vivo biology with improved fidelity” (Massachusetts Institute of Technology, priority 2018, dated 2024)

Tested on: intracellular proteome of ENR+CD and ENR organoids
Experiment: LC-MS/MS TMT proteomics of ENR+CD versus ENR organoids
Assay type: cell-based, C57BL/6 mice
Details: for Average logFC: ENR+CD versus ENR organoids, sample pairs in aggregate (n=4, 2 technical replicates from two biological donors); for M1-1 Log2 Median Normalized / M1-2 Log2 Median Normalized / M2-1 Log2 Median Normalized / M2-2 Log2 Median Normalized: protein abundance ratio ENR+CD versus ENR organoids, LC-MS/MS TMT proteomics; for M1-1 Log2 Median Normalized: sample pair M1-1; for M1-2 Log2 Median Normalized: sample pair M1-2; for M2-1 Log2 Median Normalized: sample pair M2-1; for M2-2 Log2 Median Normalized: sample pair M2-2; for change: up = enriched in ENR+CD, down = enriched in ENR, FDR<0.05 and log fold change cut-off

Molecule	Average logFC	M1-1 Log2 Median Normalized	M1-2 Log2 Median Normalized	M2-1 Log2 Median Normalized	M2-2 Log2 Median Normalized	change
Q8CAB8 (protein, UniProt Q8CAB8 1-329, looked up, full-length) MELHILEHRLQVASVAKESIPLFTYGLIKLAFLSSKTRCKFFSLTETPEDYTIIVDEEGFLELPSSEHLSVADATWLALNVVSGGGSFSSSQPIGVTKIAKSVIAPLADQNISVFMLSTYQTDFILVRERDLPFVTHTLSSEFTILRVVNGETVAAENLSFTNGFVKPKMVQRPVIHPLSSPSNRFCVTSLDPDTLPAVATLLMDVMFYSNGVKDPMAASDDCGHIRFFSFSLIEGYISLVMDVQTQQRFPSHLLFTSASGELWKMVRIGGQPLGFDECGIVAQISEPLAAADIPAYYISTFKFDHALVPEENISGVIHALKVSQAGKH	1.494	1.555	0.678	1.5715	1.494	up
Q8R550 (protein, UniProt Q8R550 1-709, looked up, full-length) MVEAIVEFDYQAQHDDELTISVGEVITNIRKEDGGWWEGQINGRRGLFPDNFVREIKKDMKKDLLSNKAPEKPMHDVSSGNALLSSETILRTNKRGERRRRRCQVAFSYLPQNDDELELKVGDIIEVVGEVEEGWWEGVLNGKTGMFPSNFIKELSGESDELGISQDEQLSKSRPEGFLPASLLPFPAHGAKGKTTFEGTILYRAAPGKTEGHRRYYSLRETTGSESDGGDSSSTKSEGANGTMATAAIQPKKVKGVGFGDIFKDKPIKLRPRSIEVENDFLPVEKTIGKKLPPATSTPDPSKTEMDSRTKTKDYCKVIFPYEAQNDDELTIKEGDIVTLINKDCIDVGWWEGELNGRRGVFPDNFVKLLPSDFDKEGNRPKKPPPPSAPVVKQGAGTTERKHEIKKIPPERPETLPNRTEEKERPEREPKLDLQKPSVPAIPPKKPRPPKTNSLNRPGALPPRRPERPVGPLTHTRGDSPKIDLAGSALSGILDKDLSDRSNDIDLEGFDSVISSTEKLSHPTTSRPKATGRRPPSQSLTSSSLSSPDIFDSPSPEEDKEEHISLAHRGIDVSKKTSKTVTISQVSDNKTSLPPKPGTMAAASSGPASLSSVASSPMSSSLGTAGQRASSPSLFSTEGKPKMEPAVSSQAAIEELKMQVRELRTIIETMKDQQKREIKQLLSELDEEKKIRLRLQMEVNDIKKALQSK	1.492	1.738	1.082	1.8435	1.303	up
Q8CIV3 (protein, UniProt Q8CIV3 1-451, looked up, full-length) MLRLCFFISFMCLVKSDTDETCPSFTRLSFHSAVVGTGLSVRLMLYTQRDQTCAQIINSTALGSLNVTKKTTFIIHGFRPTGSPPVWIEELVQSLISVQEMNVVVVDWNRGATTVIYPHASSKTRQVASILKEFIDQMLVKGASLDNIYMIGVSLGAHIAGFVGESYEGKLGRVTGLDPAGPLFNGRPPEERLDPSDALFVDVIHSDTDALGYKEALGHIDFYPNGGLDQPGCPKTIFGGIKYFKCDHQMSVYLYLASLQNNCSITAYPCDSYRDYRNGKCVSCGAGQIVPCPRVGYYADSWKEYLWDRDPPMTKAFFDTAETKPYCMYHYFVDIVSWNKSVRRGFITIKLRGEDGNITESKIDHEPSAFEKYHQVSLLARFNRDLDKVAEISLLFSTGSVVGPKYKLRVLQMKLRSLAHPDRPHLCRYDLVLMENVETSFQPILCSQQQM	1.179	1.6	0.988	0.9025	1.225	up
Q8K023 (protein, UniProt Q8K023 1-323, looked up, full-length) MNSKIQKIELNDGHSIPVLGFGTYATEEHLKKKSMESTKIAIDVGFCHIDCSHLYQNEEEIGQAILSKIEDGTVKREDIFYTSKLWSTSHRPELVRPSLENSLRKLNLDYVDLYLIHFPVSLKPGNELLPKDEHGNLIFDTVDLCDTWEAMEKCKDAGLAKSIGVSNFNRRQLEMILNKPGLKYKPVCNQVECHLYLNQSKLLAYCKMNDIVLVAYGALGTQRYKYCINEDTPVLLDDPVLCAMAKKYKRTPALIALRYQLDRGIVALAKSFNEERIRENMQVFDFQLASDDMKILDGLDRNLRYFPADMFKAHPNFPFFDEY	−1.451	−1.063	−0.99	−1.9945	−1.758	down
Q8CFC7 (protein, UniProt Q8CFC7 1-668, looked up, full-length) MWHEARKHERKLRGMMVDYKKRAERRREYYEKIKKDPAQFLQVHGRACKVHLDSAVALAAESPVNMMPWQGDTNNMIDRFDVRAHLDHIPDYTPPLLTTISPEQESDERKCNYERYRGLVQNDFAGISEEQCLYQIYIDELYGGLQRPSEDEKKKLAEKKASIGYTYEDSTVAEVEKVAEKPEEEESPAEEESNSDEDEVIPDIDVEVDVDELNQEQVADLNKQATTYGMADGDFVRMLRKDKEEAEAIKHAKALEEEKAMYSGRRSRRQRREFREKRLRGRKISPPSYARRDSPTYDPYKRSPSESSSESRSRSRSPSPGREEKITFITSFGGSDEEAAAAAAAAAASGAAPGKPPAPPQTGGPAPGRNASTRRRSSSSSASRTSSSRSSSRSSSRSRRGYYRSGRHARSRSRSWSRSRSRSRRYSRSRSRGRRHSDGGSRDGHRYSRSPARRGGYVPRRRSRSRSRSGDRYKRGARGPRHHSSSHSRSSWSLSPSRSRSVTRSGSRSQSRSRSRSQSHSQSQSHSPSPPREKLTRPAASPAVGEKLKKTEPAAGKETGAAKPKLTPQERLKLRMQKALNRQFKADKKAAQEKMIQQEHERQEREDELRAMARKIRMKERERREKEREEWERQYSRQSRSPSPRYSREYSSSRRRSRSRSRSPHYRH	−1.139	−1.219	−0.633	−0.8625	−1.84	down
Q8CGK7 (protein, UniProt Q8CGK7 1-381, looked up, full-length) MGCLGNSSKTAEDQGVDEKERREANKKIEKQLQKERLAYKATHRLLLLGAGESGKSTIVKQMRILHVNGFNPEEKKQKILDIRKNVKDAIVTIVSAMSTIIPPVPLANPENQFRSDYIKSIAPITDFEYSQEFFDHVKKLWDDEGVKACFERSNEYQLIDCAQYFLERIDSVSLVDYTPTDQDLLRCRVLTSGIFETRFQVDKVNFHMFDVGGQRDERRKWIQCFNDVTAIIYVAACSSYNMVIREDNNTNRLRESLDLFESIWNNRWLRTISIILFLNKQDMLAEKVLAGKSKIEDYFPEYANYTVPEDATPDAGEDPKVTRAKFFIRDLFLRISTATGDGKHYCYPHFTCAVDTENIRRVFNDCRDIIQRMHLKQYELL	−1.357	−1.028	−1.1	−1.4805	−1.82	down
Q8K354 (protein, UniProt Q8K354 1-277, looked up, full-length) MSSCSRVALVTGANKGIGFAITRDLCRKFSGDVVLTARDEARGRAAVQQLQAEGLSPRFHQLDIDDPQSIRALRDFLRKEYGGLNVLVNNAGIAFRMDDPTPFDIQAEVTLKTNFFATRNVCTELLPIMKPHGRVVNISSLQGLKALENCREDLQEKFRCDTLTEVDLVDLMKKFVEDTKNEVHEREGWPDSAYGVSKLGVTVLTRILARQLDEKRKADRILLNACCPGWVKTDMARDQGSRTVEEGAETPVYLALLPPDATEPHGQLVRDKVVQTW	−1.221	−1.154	−1.435	−1.8555	−0.441	down
Q8K4R4 (protein, UniProt Q8K4R4 1-332, looked up, full-length) MLLKEYRICMPLTVDEYKIGQLYMISKHSHEQSDRGEGVEVVQNEPFEDPHHGNGQFTEKRVYLNSKLPSWARAVVPKIFYVTEKAWNYYPYTITEYTCSFLPKFSIHIETKYEDNKGSNDSIFDSEAKDLEREVCFIDIACDEIPERYYKESEDPKHFKSEKTGRGQLREGWRDNHQPIMCSYKLVTVKFEVWGLQTRVEQFVHKVVRDILLIGHRQAFAWVDEWYDMTMDEVREFERATQEATNKKIGVFPPAISISSIALLPSSVRSAPSSAPSTPLSTDAPEFLSIPKDRPRKKSAPETLTLPDPEKKATLNLPGVYTSEKPCRPKSE	1.235	1.072	0.913	1.6335	1.321	up
Q8K4B2 (protein, UniProt Q8K4B2 1-609, looked up, full-length) MAGRCGARGALSPQLLLFDLPPALLGELCGILDSCDGPLGWRGLAERLSNSWLDVRHIEKYVNQGKSGTRELLWSWAQKNKTIGDLLEVLQDMGHQRAIHLIINYGVSWTPSVQTHHELPFPSFPPEVKHACRENDPGPLEPANVTVDNVLVPEHNEKGTLQKTPISFQSILEGTKHFHKDFLIGEGEIFEVYRVDIRNQAYAVKLFKQEKKMQLKKHWKRFLSELEVLLLFRHPHILELAAYFTETEKLCLVYPYMSNGTLFDRLQCTNGTTPLSWHVRISVLIGIAKAIQYLHNTQPCAVICGNVSSANILLDDQLQPKLTDFAAAHFRPNLEQQSSTINMTGGGRKHLWYMPEEYIRQGRLSVKTDVYSFGIVIMEVLTGCKVVLDDPKHVQLRDLLMELMEKRGLDSCLSFLDRKIPPCPRNFSAKLFSLAGRCVATKAKLRPTMDEVLSSLESTQPSLYFAEDPPTSLKSFRCPSPLFLDNVPSIPVEDDENQNNHSVPPKEVLGTDRVTQKTPFECSQSEVTFLGLDRNRGNRGSEADCNVPSSSHEECWSPELVAPSQDLSPTVISLGSSWEVPGHSYGSKPMEKRCSSGLFCSEHEQSKKQ	1.198	1.448	0.943	1.1955	1.204	up
